# Results published in patent US6548060 (dated 2003).
# T1: ASK1 (apoptosis signal-regulating kinase), full-length (UniProt Q99683 1-1374, limits assumed)
# T1 construct: Full-length; LexA fusion in yeast two-hybrid; HA-tagged (pcDNA3-HA-ASK1, gift of Dr. Ichijo) in 293 cells for co-IP and the MBP kinase assay; Flag-tagged in the GST-SEK1 kinase assay; also called ASK1-F; HA-ASK1
# T1 sequence (looked up): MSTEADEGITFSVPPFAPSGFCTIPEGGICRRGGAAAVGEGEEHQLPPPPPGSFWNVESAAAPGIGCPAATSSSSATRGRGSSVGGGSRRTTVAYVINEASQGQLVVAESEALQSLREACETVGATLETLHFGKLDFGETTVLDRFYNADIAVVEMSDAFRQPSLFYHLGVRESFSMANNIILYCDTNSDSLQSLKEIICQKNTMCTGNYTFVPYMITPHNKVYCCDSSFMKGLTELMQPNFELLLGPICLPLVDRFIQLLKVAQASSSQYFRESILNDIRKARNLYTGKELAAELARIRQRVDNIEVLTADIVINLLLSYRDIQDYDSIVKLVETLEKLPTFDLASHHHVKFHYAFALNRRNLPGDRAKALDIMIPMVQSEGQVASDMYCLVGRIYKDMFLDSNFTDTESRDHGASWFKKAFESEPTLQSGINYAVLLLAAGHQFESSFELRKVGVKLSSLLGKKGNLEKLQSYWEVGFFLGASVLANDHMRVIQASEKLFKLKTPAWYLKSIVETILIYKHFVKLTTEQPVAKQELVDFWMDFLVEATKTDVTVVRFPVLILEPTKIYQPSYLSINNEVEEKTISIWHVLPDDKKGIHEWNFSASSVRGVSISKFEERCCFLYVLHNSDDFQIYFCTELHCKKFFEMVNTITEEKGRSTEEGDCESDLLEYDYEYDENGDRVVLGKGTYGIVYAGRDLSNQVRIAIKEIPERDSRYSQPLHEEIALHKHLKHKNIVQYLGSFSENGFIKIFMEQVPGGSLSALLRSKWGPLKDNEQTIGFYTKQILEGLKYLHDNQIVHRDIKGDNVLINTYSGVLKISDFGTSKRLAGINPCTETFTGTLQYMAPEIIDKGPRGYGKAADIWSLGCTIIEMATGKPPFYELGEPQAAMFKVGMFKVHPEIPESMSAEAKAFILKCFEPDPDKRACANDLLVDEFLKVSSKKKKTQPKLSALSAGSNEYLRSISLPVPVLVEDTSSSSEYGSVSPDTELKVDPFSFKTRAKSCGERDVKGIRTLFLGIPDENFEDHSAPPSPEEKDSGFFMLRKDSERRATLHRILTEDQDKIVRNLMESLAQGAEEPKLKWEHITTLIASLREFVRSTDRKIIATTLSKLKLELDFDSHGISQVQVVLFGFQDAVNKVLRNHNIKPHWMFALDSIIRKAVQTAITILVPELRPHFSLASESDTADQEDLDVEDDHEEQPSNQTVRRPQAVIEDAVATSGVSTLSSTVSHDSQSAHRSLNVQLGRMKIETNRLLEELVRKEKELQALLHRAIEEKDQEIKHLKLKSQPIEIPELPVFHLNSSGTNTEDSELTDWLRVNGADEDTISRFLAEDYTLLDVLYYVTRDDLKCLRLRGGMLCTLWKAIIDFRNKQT
# T2: human glutaminyl-tRNA synthetase, full-length (human, UniProt P47897 1-775)
# T2 construct: range 1-775; Fused to LexA in the yeast two-hybrid assay (pEG202); also called QRS; QRS-F
# T2 sequence (looked up): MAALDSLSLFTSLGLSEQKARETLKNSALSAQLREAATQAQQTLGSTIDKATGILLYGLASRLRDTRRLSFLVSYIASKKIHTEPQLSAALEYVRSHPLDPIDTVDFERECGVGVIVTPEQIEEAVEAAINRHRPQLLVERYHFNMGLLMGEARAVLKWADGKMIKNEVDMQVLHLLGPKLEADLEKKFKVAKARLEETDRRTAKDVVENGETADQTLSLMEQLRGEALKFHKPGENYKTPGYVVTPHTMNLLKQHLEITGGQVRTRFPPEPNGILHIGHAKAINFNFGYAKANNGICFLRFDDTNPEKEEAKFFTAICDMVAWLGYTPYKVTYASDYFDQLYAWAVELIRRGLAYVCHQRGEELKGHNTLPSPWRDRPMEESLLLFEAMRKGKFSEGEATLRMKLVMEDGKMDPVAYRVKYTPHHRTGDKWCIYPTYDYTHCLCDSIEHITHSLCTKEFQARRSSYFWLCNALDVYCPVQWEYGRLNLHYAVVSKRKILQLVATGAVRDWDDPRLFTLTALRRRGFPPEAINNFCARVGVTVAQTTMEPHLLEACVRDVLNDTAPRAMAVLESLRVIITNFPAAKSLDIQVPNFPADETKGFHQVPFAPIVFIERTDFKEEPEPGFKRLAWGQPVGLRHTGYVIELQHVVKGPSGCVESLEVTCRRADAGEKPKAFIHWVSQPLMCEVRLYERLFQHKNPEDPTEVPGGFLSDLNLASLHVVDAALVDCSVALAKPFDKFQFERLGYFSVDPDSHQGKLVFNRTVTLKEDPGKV
# B1: N-terminal 236 aa extension of human glutaminyl-tRNA synthetase (other, UniProt P47897 1-236, looked up)
# chain: MAALDSLSLFTSLGLSEQKARETLKNSALSAQLREAATQAQQTLGSTIDKATGILLYGLASRLRDTRRLSFLVSYIASKKIHTEPQLSAALEYVRSHPLDPIDTVDFERECGVGVIVTPEQIEEAVEAAINRHRPQLLVERYHFNMGLLMGEARAVLKWADGKMIKNEVDMQVLHLLGPKLEADLEKKFKVAKARLEETDRRTAKDVVENGETADQTLSLMEQLRGEALKFHKPGE
# notes: range 1-236; LexA fusion in yeast two-hybrid; GST fusion (pGEX4T-2), purified, in the in vitro pull-down; Myc-tagged from pcDNA3 in 293 cells for co-IP; also called QRS-N; LexA-QRS-N
# Tests used:
# [1] = target: T1, ASK1 (apoptosis signal-regulating …); assay: co-immunoprecipitation with anti-HA antibody from 293 cells (FIG. 3A)
# Description: Figure 3: FIG. 3. Interaction of QRS-C and ASK1-N. A. The cDNA (4 ug each) encoding QRS-F. -N or -C (Myc tagged) cloned in pcDNA3 was transfected into 293 cells in 100-mm dishes with 0.5 ug pcDNA3-HA-ASK1 (a kind gift of Dr. Ichijo, Tokyo university, Japan). Co-immunoprecipitation between HA-ASK1 and QRS was carried out as described previously (11) using anti-HA antibody (Santa Cruz). The precipitated proteins were resolved in 10% SDS-polyacrylamide gel, and the presence of QRS-F and -N, and -C were detected by immunoblotting with anti-QRS (17) and Myc (9E10, Boehringer Mannheim) antibodies, respectively. -B. pcDNA3-QRS-F (4 ug) was co-transfected into 293 cells with pcDNA3-HA-ASK1-F (full length) or -N (N-terminal 649 aa) (4 ug each). The cells were harvested after 24 hrs and the ASK1 peptides were precipitated with anti-HA antibody and co-precipitation of QRS was determined by immunoblotting with anti-QRS antibody. […]
# Since ASK1 is the immediate downstream kinase of Daxx, we tested whether QRS also interacts with ASK1. The interaction of the two proteins was determined by co-immunoprecipitation. […] Since the N-terminal 649 aa peptide was previously determined to be a regulatory domain interacting with Daxx, (FIG. 1), we tested whether QRS interacts with ASK1-N or -C. […]
# human Daxx, full-length = target: T3, human Daxx, full-length (human, UniProt Q9UER7 1-740); assay: summary of the experiments in the legend of FIG. 1
# T3 construct: range 1-740; Expressed from pcDNA3 in 293 cells for co-IP; also called B42-Daxx; pcDNA3-Daxx
# [2] = target: B1; assay: in vitro pull-down, purified His-Daxx-C with GST-QRS-N on GST resin, Coomassie-stained gel (FIG. 2B)
# Description: (§1) Figure 2: FIG. 2. Interaction of QRS-N and Daxx-C. A. (upper panel) The interaction of QRS and Daxx was mapped by yeast two hybrid analysis. The full-length (F), N-terminal 236 aa (N) and C-terminal 539 aa (C) peptides of QRS, and the full-length ASK1 were fused to LexA (DNA-binding protein). […] The pairs of LexA and B42 hybrid proteins were expressed in a yeast tester strain and the positive interactions were determined by the formation of blue colonies as described previously (8). […] Daxx-C and QRS-N were expressed as His (pET28a, Novagen) and GST (pGEX4T-2, Amersham Pharmacia Biotech) fusion proteins, respectively and purified following the manufacturer's instructions. The purified His-Daxx-C (5 ug) was mixed with GST or GST-QRS-N (5 ug) at 4° C. for 30 min in 20 mM sodium phosphate buffer, pH 7.8, containing 500 mM NaCl. The GST proteins were precipitated with the GST resin (10 ul) and the precipitated proteins were eluted and resolved by 12% SDS-polyacrylamide gel electrophoresis and stained with Coomasie blue. Figure 2:
# The interaction between the Daxx-C and QRS-N was confirmed by in vitro pull down experiment. Daxx-C and QRS-N were expressed as His and GST fusion proteins, respectively. The purified two fusion proteins were then mixed and precipitated with the GST resin. Daxx-C was co-precipitated with QRS-N, confirming the direct interaction between the two molecules (FIG. 2B).
# [3] = target: T2, human glutaminyl-tRNA synthetase, …; assay: yeast two-hybrid (FIG. 2A)
# Description: as §1
# (§2) Human Daxx was originally identified to be associated to Fas to mediate apoptotic signal ( 10) to its downstream kinase, ASK1 (11). The activation of ASK1 then results in activation of Jun N-terminal kinase (JNK) and p38 for cellular apoptosis (12). The interaction between QRS and Daxx was further refined by yeast two hybrid analysis. […]
# [4] = target: T4, N-terminal 610 aa peptide of Daxx (human, UniProt Q9UER7 1-610); assay: yeast two-hybrid (FIG. 2A lower panel)
# T4 construct: range 1-610; Yeast two-hybrid construct; 610 aa overlaps Daxx-C (604-740) by a few residues as printed; also called Daxx-N
# T4 sequence (Q9UER7 1-610 limits assumed): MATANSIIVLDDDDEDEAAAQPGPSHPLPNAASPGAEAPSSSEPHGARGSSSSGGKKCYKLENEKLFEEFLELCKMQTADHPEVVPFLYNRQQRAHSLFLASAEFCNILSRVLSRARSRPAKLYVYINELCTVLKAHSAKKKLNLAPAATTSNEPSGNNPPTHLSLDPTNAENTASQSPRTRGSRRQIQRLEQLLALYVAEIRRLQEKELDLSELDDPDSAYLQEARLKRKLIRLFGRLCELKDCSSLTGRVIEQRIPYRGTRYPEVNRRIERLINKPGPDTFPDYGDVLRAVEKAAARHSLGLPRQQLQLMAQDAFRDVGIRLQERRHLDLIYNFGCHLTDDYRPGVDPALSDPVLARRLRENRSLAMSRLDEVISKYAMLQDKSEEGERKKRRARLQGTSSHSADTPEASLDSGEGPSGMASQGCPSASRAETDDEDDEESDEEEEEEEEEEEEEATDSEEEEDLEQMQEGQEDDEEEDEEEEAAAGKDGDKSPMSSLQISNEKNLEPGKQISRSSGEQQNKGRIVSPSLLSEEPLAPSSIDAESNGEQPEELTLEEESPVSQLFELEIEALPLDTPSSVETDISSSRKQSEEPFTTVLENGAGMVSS
# Description: as §1, with “Interaction” for “Figure 2: FIG. 2. Interaction”
# as §2
Binder,binding result [1],"binding result (human Daxx, full-length)",binding result [2],binding result [3],binding result [4]
B1,no binding,binds,,,
"C-terminal 137 aa peptide of human Daxx (G604-D740) (other, UniProt Q9UER7 604-740, looked up, range 604-740; B42 fusion in yeast two-hybrid; His fusion (pET28a), purified, in the in vitro pull-down; also called Daxx-C; B42-Daxx-C) GAGMVSSTSFNGGVSPHNWGDSGPPCKKSRKEKKQTGSGPLGNSYVERQRSVHEKNGKKICTLPSPPSPLASLAPVADSSTRVDSPSHGLVTSSLCIPSPARLSQTPHSQPPRPGTCKTSVATQCDPEEIIVLSDSD",,,binds,binds,binds
